From patent US6190659A, “Bacterial plasmin binding protein and methods of use thereof” (priority 1996, dated 2001)

System: O=C(O)C(CO)OP(=O)(O)O
Test: Enolase single enzyme assay: conversion of 2-phosphoglycerate to phosphoenolpyruvate, absorbance at 240 nm
Format: biochemical
Details: 7.7 mM KCl
Description: FIG. 7: Michaelis-Menten plot depicting the change in absorbance at 240 nm/minute as a function of the concentration of 2-phosphoglycerate (mM) as catalyzed by the plasmin binding protein. The change in absorbance is due to the conversion of 2-phosphoglycerate to phosphoenolpyruvate. Conditions as described in Example 1.
FIG. 8: Double-reciprocal plot depicting the change in the reciprocal of the absorbance at 240 nm/minute as a function of the reciprocal of the concentration of 2-phosphoglycerate (mM) as catalyzed by the plasmin binding protein. The change in absorbance is due to the conversion of 2-phosphoglycerate to phosphoenolpyruvate. Conditions as described in Example 1.
The molecular weight of the plasmin binding protein for one particular embodiment of the present invention has been determined to be approximately 45 kDa by SDS-PAGE.
(b) For the kinetic studies, the single enzyme assay was used, involving only the conversion of 2-phosphoglycerate to phosphoenolpyruvate by enolase. This simpler reaction avoids possible interactions of the effectors with the other enzymes. The reaction was performed at 30° C. in 100 mM HEPES buffer, pH 7.0, containing 10 mM MgSO4, 3.2 mM EDTA and 7.7 mM KCl and varying concentrations of 2-phosphoglycerate (0.19-7.5 mM). The change in absorbance/min was monitored at 240 nm. […] Michaelis-Menten and Lineweaver-Burke plots were drawn from the data obtained using 5 μg of SEN and varying concentrations of 2-phosphoglycerate (FIGS. 7 and 8). […] A concentration-dependent increase in the enolase activity was also found for the intact, washed streptococci (FIG. 5).

[1] = other: 0.1 M Hepes pH 7.0, 10 mM MgSO4, 3.2 mM EDTA, 30° C.
[2] = other: 30° C., 100 mM HEPES pH 7.0, 10 mM MgSO4, 3.2 mM EDTA, 5 μg SEN, 2-phosphoglycerate 0.19-7.5 mM, Michaelis-Menten and Lineweaver-Burke plots

streptococcal surface enolase (SEN), 45 kDa plasmin binding protein purified from group A streptococci type M6 strain D471, N-terminal sequence SEQ ID NO: 1 (Streptococcus pyogenes MGAS10394)
Km [1]: 1500 µM
Vmax [1]: 270 μmol per minute-mg protein
Km [2]: 1500 µM
Vmax [2]: 270 μmol per minute-mg protein
